Series [1] addresses rKgp: mature recombinant Kgp catalytic domain with the ABM1 motif (Gly681-Ala710) deleted (Porphyromonas gingivalis W50).
Series [2] has the same target. In words: enzyme inhibition kinetics.
The series “SEC” deals with the molecule itself. The series can be described thus: SEC. (Size exclusion chromatography separates by hydrodynamic size, large species first.)

“And” between values parts separate entries of the source, which are not always exact repeats. Identical values can stand only once.

As to “iodoacetylated Kgp propeptide monomer (from UniProt Q51817 20-228) (domain or fragment)”, the inhibition of rKgp by the iodoacetylated monomer (100 mg/L), substrate DQ-BSA in series [1] was found to be 28 % inhibition.
“recombinant Kgp propeptide (thrombin-cleaved; used as DTT-stabilised monomer in the inhibition assays) (from UniProt Q51817 20-228) (domain or fragment)”: the Ki in series [2] is 2010 nM and 2040 nM.

B1: recombinant Kgp propeptide (thrombin-cleaved; used as DTT-stabilised monomer in the inhibition assays) (domain or fragment)
chain: QSAKIKLDAPTTRTTCTNNSFKQFDASFSFNEVELTKVETKGGTFASVSIPGAFPTGEVGSPEVPAVRKLIAVPVGATPVVRVKSFTEQVYSLNQYGSEKLMPHQPSMSKSDDPEKVPFVYNAAAYARKGFVGQELTQVEMLGTMRGVRIAALTINPVQYDVVANQLKVRNNIEIEVSFQGADEVATQRLYDASFSPYFETAYKQLFNR
With B1, the “stoichiometry N” value in the series “SEC” worked out at 2.

What is called Ki is the dissociation constant of the complex between target and ligand, obtained from inhibition or displacement. By stoichiometry N is commonly meant a count of units in the complex or per binding partner.

The record behind these values is PMC3677877 (PLoS ONE, 2013).
